Target: human IL-8 in L-CMV melanoma cell conditioned medium (human) (UniProt P10145)
Test: cell-based or functional assay

Chain of UniProt P10145 (P10145 23-99 limits assumed): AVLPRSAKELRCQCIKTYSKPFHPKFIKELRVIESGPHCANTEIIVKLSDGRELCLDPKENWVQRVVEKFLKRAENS

Substance: mouse anti-hIL-8 mAb (6214.11, R&D Systems) (antibody)
- inhibition of PMNLs chemotaxis induced by L-CMV CCM: 30%
